Results: patent US20220033501A1 (SHANGHAI PHARMAEXPLORER, published 2022)
Where a chain is given by its changes, count along the chain named. Values belong to the binder of their own block, whether it stands above or below them.

Columns and labels:
[1] = biological target: T1, human TIM-3 extracellular domain protein with hFc tag (hTIM-3-hFc) (human, UniProt Q8TDQ0 22-200); assay: FACS, blocking of hTIM-3-hFc binding to phosphatidylserine on apoptotic Jurkat cells, 2.469 nM antibody
T1 construct: not shown: human IgG Fc fragment (hFc) of the pCpC vector
T1 sequence: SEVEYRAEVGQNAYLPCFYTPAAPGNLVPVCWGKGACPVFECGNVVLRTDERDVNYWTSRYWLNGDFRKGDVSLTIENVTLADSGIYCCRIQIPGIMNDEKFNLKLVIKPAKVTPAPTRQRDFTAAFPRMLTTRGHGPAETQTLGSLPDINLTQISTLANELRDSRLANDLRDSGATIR
Experimental: (§1) Jurkat cells were treated with 1 μM staurosporine at 37° C. for 2 hours to induce apoptosis. The presence of phosphatidylserine was detected by Annexin V-FITC cell apoptosis detection kit. […] The cells were washed 1-2 times with PBS buffer, and after cell counting, the cells were diluted to 1-2×10⁶ cells per milliliter with binding buffer, and added to a 96-well FACS reaction plate at 100 microliters per well. The antibody sample to be tested and 2 μg/ml hTIM-3-hFc protein were prepared with binding buffer, and mixed equally in volume. The mixture was incubated at room temperature for 30 minutes, then the FACS reaction plate incubated with apoptotic cells was centrifuged to discard the supernatant, and the above mixture was added to the apoptotic cells at 100 microliters per well and incubated at room temperature for 1 hour. The plate was washed twice with the binding buffer by centrifugation, added with 100 microliters of fluorescent (Alexa 488)-labeled secondary antibodies per well, and incubated for half an hour. The plate was washed 2-3 times with the binding buffer by centrifugation, added with 100 microliters of PBS per well to suspend cells, and detected using FACS (FACS Calibur, BD) and the results were analyzed. The results are shown in Table 15 and FIG. 15, wherein the IgG control is human IgG, and the data in the table is the inhibition rate (%).

[2] = biological target: T1, human TIM-3 extracellular domain …; assay: FACS, blocking of hTIM-3-hFc binding to phosphatidylserine on apoptotic Jurkat cells, 200 nM antibody
Experimental: as §1

[3] = biological target: T1, human TIM-3 extracellular domain …; assay: FACS, blocking of hTIM-3-hFc binding to phosphatidylserine on apoptotic Jurkat cells, 66.667 nM antibody
Experimental: as §1

[4] = biological target: T2, human TIM-3, full length, on cells (human, UniProt Q8TDQ0 22-301); assay: FACS, CHOK1-hTIM-3 cells; antibody 8 nM
T2 construct: Also used here for native TIM-3 on PBMC in the functional rows; also called CHOK1-hTIM-3; HEK293-h TIM-3
T2 sequence: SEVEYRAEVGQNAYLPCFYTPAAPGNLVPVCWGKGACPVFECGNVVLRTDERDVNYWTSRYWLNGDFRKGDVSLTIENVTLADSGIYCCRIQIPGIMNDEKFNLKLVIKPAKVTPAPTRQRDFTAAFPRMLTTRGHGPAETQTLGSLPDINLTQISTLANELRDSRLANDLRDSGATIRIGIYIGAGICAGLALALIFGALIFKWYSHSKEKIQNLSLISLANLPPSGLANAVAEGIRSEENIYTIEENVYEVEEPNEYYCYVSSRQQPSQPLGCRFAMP
From the text: (§2) The pIRES plasmid containing the full-length nucleotide sequence encoding human TIM-3 as described in Example 1 was transfected into CHOK1 cell line to obtain a CHOK1 stable cell line containing human TIM-3 (herein referred to as CHOK1-hTIM-3 stable cell line). The pIRES plasmid containing the full-length gene of monkey TIM-3 was transfected into CHOK1 cell line to construct a CHOK1 stable cell line containing monkey TIM-3 (herein referred to as CHOK1-cTIM-3 stable cell line). The CHOK1-hTIM-3 stable cell line and CHOK1-cTIM-3 stable cell line were expanded to a confluence of 90% in a T-75 cell culture flask. The medium was aspirated, and the cells were washed with HBSS (Hanks' Balanced Salt Solution) 1-2 times, and then treated with an enzyme-free cell dissociation solution (Versene solution: Life technology) and the cells were collected. The cells were washed with HBSS buffer for 1-2 times. After counted, the cells were diluted with HBSS to 1-2×10⁶ cells per ml, added with 1% goat serum blocking solution, incubated on ice for 20-30 minutes, and then washed with HBSS by centrifugation 2 times. The collected cells were suspended in the FACS buffer (HBSS+1% BSA) to 2×10⁶ cells/ml, added as 100 microliters per well to a 96-well FACS reaction plate, added with 100 microliters per well of the antibody sample to be tested, incubated on ice for 1-2 hours. The plate was washed twice with the FACS buffer by centrifugation, added with 100 microliters of fluorescent (Alexa 488)-labeled secondary antibodies per well, and incubated on ice for 0.5-1.0 hours. The plate was washed 2-3 times with FACS buffer by centrifugation, added with 100 μl fixative solution (4% Paraformaldehyde) per well to suspend the cells. 5-10 minutes later, it was washed 1-2 times with FACS buffer by centrifugation. The cells were suspended with 100 microliters of FACS buffer, FACS (FACSCalibur, BD) was used for detection and the results were analyzed. The results are shown in FIGS. 7 and 8, Tables 7 and 8, wherein the IgG control is rat IgG, and the data in the table are the average fluorescence intensity values of the cell populations measured by MFI.

[5] = biological target: T2, human TIM-3, full length, on cells; assay: FACS, CHOK1-hTIM-3 cells; antibody 40 nM
From the text: as §2

[6] = biological target: T2, human TIM-3, full length, on cells; assay: FACS, CHOK1-hTIM-3 cells; antibody 0.32 nM
From the text: as §2

- Inhibition ratio (%) [1]: 10.9%
- Inhibition ratio (%) [2]: 37.6%
- Inhibition ratio (%) [3]: 52.3%
B3: 134H3G6 fully human TIM-3 antibody (human IgG4, kappa) (antibody, V domains shown)
VH: EVQLVESGGGLVQPGGSLRLSCAASGFTFSNSWMTWVRQAPGKGLEWVANIKQAGTEKYYVDSVKGRFTISRDNAKNSLYLQMNSLRAEDTAVYYCNSGSNYFDYWGQGTLVTVSS
VL: EIVMTQSPATLSVSPGERATLSCRARQNFYSNLAWYQQKPGQAPRLLIYGASTRATGIPARFSGSGSGTEFTLTISSLQSEDFAVYYCQQYNNWPLTFGGGTKVEIK

- Mean fluorescence intensity [4]: 139
- Mean fluorescence intensity [5]: 230
- Mean fluorescence intensity [6]: 17.7
B5: 134H3G6 (TIM-3 antibody purified from hybridoma, chimeric antibody of Example 2) (antibody, V domains shown)
VH: B3 VH
VL: B3 VL
notes: From hybridoma of Harbour H2L2 transgenic mice: human variable regions, rat constant regions

- Inhibition ratio (%) [1]: 5.8%
- Inhibition ratio (%) [2]: 52.1%
- Inhibition ratio (%) [3]: 57.2%
B8: 215A8F2 fully human TIM-3 antibody (human IgG4, kappa) (antibody, V domains shown)
VH: QVQLQQWGAGLLKPSETLSLTCTVYGGSFSGYYWNWIRQPPGKGLEWLGEINHSGSTNYNPSLKRRVTISVDTSKNQFSLKLSSVTAADTAVYYCARVYYYGPFDFWGQGTLVTVSS
VL: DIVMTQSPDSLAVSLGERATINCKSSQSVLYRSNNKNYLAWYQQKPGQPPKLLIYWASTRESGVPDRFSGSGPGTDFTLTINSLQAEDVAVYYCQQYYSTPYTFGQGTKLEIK

- Mean fluorescence intensity [4]: 608
- Mean fluorescence intensity [5]: 610
- Mean fluorescence intensity [6]: 55.6
B9: 215A8F2 (TIM-3 antibody purified from hybridoma, chimeric antibody of Example 2) (antibody, V domains shown)
VH: B8 VH
VL: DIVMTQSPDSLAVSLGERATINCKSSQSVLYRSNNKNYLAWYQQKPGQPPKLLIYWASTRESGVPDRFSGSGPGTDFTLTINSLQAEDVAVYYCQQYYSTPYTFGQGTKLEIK
notes: as for B5

Further lines, the binder ahead of its results:

B1: 7A4F10 fully human TIM-3 antibody (human IgG4, kappa) (antibody, V domains shown)
VH: EVQLLESGGGLVQPGGSLRLSCAASGFTFRTHLISWVRQAPGKGLEWVAAITGSGGSTYYADSVKGRFIISRDNSKNTLFLQMNSLRAEDTAVYYCAKDGGSGSYDDFWGQGTLVTVSS
VL: ETVLTQSPVTLSLSPGERATLSCRASQSVGSYLAWYQQKPGQAPRLLIYDASNRATGIPARFSGSGSGTDFTLTISSLEPEDFAVYYCQQRSNWPPTFGQGTKVEIK
- Inhibition ratio (%) [1]: 23.7%
- Inhibition ratio (%) [2]: 56.9%
- Inhibition ratio (%) [3]: 60.5%

B2: 7A4F10 (TIM-3 antibody purified from hybridoma, chimeric antibody of Example 2) (antibody, V domains shown)
VH: B1 VH
VL: B1 VL
notes: as for B5
- Mean fluorescence intensity [4]: 56.2
- Mean fluorescence intensity [5]: 144
- Mean fluorescence intensity [6]: 6.8

B4: 18D2H2 fully human TIM-3 antibody (human IgG4, kappa) (antibody, V domains shown)
VH: EVQLVESGGDLVQPGGSLRLSCAASGFTFSTYWMTWVRQAPGRGLEWVANIKQDGSAKYYVDSVKGRFTLSRDDAKNSLYLQMNSLRAEDTAVYYCARGSNWFDYWGQGTLVTVSS
VL: B3 VL with I2T, R26N, F29V, G50D, I58F
- Inhibition ratio (%) [1]: 27.4%
- Inhibition ratio (%) [2]: 56.1%
- Inhibition ratio (%) [3]: 62.3%

B6: 57F4E5 (TIM-3 antibody purified from hybridoma, chimeric antibody of Example 2) (antibody, V domains shown)
VH: EVQLVESGGGLVQPGGSLRLSCAASGFTFSSYWMSWVRQAPGKGLEWVANIKQDGSEKYYVDSVKGRFTISRDSAKNSLYLQMNSLRAEDTAMYFCARDSNFFDYWGQGTLVTVSS
VL: B3 VL with I2T, R26S, N28S, F29V, Y30S, Q38R, G50F, A51S
notes: as for B5
- Mean fluorescence intensity [4]: 478
- Mean fluorescence intensity [5]: 485
- Mean fluorescence intensity [6]: 177

B7: 18D2H2 (TIM-3 antibody purified from hybridoma, chimeric antibody of Example 2) (antibody, V domains shown)
VH: B4 VH
VL: B3 VL with I2T, R26N, F29V, G50D, I58F
notes: as for B5
- Mean fluorescence intensity [4]: 107
- Mean fluorescence intensity [5]: 185
- Mean fluorescence intensity [6]: 15.6
